Patent publication US20260217791A1 (COMPLEMENT THERAPEUTICS, published 2026)

Target: human C3b (human, UniProt P01024 23-667; P01024 749-1663, limits assumed)
Test: cell-based or functional assay

human C3b, sequence (P01024 23-667 limits assumed, form in doubt, chain 1 of 2): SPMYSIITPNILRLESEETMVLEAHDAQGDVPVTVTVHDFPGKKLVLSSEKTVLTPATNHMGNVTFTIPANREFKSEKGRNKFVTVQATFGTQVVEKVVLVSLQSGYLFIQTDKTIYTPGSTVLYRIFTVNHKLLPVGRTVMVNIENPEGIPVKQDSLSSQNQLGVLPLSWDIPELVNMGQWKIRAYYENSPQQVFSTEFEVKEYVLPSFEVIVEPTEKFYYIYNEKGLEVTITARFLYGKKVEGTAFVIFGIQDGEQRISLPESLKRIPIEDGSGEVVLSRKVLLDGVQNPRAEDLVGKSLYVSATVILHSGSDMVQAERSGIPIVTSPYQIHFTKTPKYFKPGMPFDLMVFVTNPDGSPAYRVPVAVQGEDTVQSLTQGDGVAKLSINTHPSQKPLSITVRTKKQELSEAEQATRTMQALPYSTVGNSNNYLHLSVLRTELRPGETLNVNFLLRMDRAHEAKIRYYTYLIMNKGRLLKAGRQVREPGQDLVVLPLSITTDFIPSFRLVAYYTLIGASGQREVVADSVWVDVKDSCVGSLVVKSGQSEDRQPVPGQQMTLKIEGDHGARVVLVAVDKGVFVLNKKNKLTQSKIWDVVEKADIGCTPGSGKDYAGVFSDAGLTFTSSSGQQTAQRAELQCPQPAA
human C3b, sequence (P01024 749-1663 limits assumed, form in doubt, chain 2 of 2): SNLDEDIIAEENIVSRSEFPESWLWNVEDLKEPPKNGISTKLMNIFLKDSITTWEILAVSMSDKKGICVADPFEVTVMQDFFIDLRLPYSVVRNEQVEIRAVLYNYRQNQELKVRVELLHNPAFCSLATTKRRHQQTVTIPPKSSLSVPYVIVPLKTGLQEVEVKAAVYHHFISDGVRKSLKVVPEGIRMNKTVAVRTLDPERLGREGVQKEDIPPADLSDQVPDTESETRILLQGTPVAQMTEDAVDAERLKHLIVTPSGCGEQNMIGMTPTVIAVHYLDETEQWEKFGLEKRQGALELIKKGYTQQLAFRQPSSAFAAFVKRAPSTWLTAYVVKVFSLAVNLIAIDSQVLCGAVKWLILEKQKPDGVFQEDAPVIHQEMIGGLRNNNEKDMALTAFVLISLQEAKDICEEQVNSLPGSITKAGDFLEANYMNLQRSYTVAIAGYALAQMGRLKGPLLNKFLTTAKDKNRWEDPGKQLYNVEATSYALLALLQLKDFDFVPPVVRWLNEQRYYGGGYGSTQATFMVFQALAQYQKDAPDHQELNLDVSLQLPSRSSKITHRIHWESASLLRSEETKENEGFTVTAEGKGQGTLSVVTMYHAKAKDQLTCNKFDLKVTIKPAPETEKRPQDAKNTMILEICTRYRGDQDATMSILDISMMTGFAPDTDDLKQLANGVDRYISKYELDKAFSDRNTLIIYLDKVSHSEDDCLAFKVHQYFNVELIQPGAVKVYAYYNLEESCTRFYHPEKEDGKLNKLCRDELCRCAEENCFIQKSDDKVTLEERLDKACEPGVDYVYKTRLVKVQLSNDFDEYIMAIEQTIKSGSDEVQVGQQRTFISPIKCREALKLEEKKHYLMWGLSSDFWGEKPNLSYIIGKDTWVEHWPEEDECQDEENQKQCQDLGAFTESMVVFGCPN

B1: small polypeptide comprising CCPs 8-10 of CR1 (SEQ ID NO:3) (receptor)
chain: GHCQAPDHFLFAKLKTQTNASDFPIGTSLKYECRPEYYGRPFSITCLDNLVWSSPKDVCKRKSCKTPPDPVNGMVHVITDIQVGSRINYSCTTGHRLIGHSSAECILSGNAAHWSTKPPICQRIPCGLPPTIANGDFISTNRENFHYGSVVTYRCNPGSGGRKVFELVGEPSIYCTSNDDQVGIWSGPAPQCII
B1 was tested, and the “IC50 of inhibition of MAC formation in zymosan activated human serum (Wieslab Complement system Screen kit ELISA, FIG. 9)” value was 125 nM.
